The record followed here is article PMC10460389, “Design of 8-mer peptides that block Clostridioides difficile toxin A in intestinal cells” (Communications Biology, 2023).

This assay addresses T1, Clostridioides difficile Toxin A labelled with Alexa Fluor 594 (Clostridioides difficile, UniProt P16154 1-2710).
T1 construct: also called TcdA-AF594; red fluorescently labeled TcdA
Put plainly: bead-based fluorescence imaging. Particulars: both partners purified.

Ends that are not written are not given here.

T1 sequence (P16154 whole entry, looked up): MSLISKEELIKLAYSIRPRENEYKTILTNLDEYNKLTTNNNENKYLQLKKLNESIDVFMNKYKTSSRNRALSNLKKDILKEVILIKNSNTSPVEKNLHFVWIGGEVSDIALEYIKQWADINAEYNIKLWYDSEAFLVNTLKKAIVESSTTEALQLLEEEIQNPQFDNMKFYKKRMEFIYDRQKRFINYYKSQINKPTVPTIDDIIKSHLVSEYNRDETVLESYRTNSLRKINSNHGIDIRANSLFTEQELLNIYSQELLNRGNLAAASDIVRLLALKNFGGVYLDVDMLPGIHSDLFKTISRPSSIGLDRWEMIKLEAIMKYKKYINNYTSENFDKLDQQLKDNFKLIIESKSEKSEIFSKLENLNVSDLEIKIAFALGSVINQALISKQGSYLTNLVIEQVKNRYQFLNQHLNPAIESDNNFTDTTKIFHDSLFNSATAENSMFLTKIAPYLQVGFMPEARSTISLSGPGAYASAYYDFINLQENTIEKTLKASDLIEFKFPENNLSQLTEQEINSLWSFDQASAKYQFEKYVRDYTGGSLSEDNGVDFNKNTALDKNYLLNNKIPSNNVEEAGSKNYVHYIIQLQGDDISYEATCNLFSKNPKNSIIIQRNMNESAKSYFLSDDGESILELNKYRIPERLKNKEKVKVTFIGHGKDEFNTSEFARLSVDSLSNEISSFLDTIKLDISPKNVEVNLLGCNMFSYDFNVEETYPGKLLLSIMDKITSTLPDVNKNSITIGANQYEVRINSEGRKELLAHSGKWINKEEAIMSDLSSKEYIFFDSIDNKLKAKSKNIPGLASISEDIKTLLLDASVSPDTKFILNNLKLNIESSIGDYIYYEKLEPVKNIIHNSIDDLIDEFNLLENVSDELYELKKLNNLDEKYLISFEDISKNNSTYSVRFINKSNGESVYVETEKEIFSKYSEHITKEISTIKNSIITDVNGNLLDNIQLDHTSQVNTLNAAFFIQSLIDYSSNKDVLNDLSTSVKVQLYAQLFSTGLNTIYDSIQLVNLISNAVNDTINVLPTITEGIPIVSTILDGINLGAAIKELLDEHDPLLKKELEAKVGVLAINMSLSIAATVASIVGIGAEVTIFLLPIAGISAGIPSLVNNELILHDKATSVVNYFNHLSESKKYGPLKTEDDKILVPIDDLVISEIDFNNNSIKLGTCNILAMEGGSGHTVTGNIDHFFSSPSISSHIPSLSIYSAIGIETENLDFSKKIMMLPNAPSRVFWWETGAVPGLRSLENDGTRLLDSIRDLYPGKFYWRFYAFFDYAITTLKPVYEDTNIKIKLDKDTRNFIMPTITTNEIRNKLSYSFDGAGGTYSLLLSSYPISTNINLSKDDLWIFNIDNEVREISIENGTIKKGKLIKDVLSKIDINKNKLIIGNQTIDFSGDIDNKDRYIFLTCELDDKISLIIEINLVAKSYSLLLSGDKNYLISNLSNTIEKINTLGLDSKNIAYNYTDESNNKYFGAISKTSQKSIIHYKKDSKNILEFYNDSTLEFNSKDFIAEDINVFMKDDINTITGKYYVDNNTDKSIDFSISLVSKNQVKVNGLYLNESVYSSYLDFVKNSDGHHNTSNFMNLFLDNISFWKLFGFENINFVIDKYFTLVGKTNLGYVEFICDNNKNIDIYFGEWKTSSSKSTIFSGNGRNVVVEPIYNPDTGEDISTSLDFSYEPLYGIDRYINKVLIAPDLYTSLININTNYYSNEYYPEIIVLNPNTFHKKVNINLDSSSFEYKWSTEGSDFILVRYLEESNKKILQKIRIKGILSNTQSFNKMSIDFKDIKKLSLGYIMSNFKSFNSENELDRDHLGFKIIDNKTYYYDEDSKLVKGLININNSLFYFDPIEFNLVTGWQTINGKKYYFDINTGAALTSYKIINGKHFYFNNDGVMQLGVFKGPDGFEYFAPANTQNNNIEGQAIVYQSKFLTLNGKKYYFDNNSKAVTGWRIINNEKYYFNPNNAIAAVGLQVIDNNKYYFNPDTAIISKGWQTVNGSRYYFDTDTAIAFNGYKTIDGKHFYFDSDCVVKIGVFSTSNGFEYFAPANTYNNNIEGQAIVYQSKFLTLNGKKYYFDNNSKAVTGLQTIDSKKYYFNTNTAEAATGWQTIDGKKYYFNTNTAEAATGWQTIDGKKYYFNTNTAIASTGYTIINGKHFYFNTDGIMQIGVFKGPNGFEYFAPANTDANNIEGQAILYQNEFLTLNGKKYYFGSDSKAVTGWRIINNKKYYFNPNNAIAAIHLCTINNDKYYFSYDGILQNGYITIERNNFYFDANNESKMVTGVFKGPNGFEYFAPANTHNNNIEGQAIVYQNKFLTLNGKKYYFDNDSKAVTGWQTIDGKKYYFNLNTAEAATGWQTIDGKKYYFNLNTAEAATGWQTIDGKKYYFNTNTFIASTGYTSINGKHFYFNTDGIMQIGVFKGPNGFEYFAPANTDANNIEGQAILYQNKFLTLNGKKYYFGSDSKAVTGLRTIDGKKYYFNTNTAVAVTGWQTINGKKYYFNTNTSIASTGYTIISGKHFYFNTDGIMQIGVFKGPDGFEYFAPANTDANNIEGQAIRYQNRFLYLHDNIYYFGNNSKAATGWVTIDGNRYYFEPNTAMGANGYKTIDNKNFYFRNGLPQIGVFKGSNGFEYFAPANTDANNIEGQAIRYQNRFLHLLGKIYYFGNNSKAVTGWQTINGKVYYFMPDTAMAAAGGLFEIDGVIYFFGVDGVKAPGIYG

On to QDWMRRHWGSG (also: on ChemMatrix Aminomethyl bead via GSG linker) [SA2 on ChemMatrix Aminomethyl bead (GSG linker)], for which the binding result is “binds”.
Then MFWEHRHRGSG (also: on ChemMatrix Aminomethyl bead via GSG linker) [SA4 on ChemMatrix Aminomethyl bead (GSG linker)], with “binds”.
